Experiment [1] addresses T1, human FAP on 3T3-huFAP cells (clone 19) (human, UniProt Q12884 1-760). Put plainly: flow cytometry on 3T3-huFAP cells, median fluorescence intensity (axis MFI APC). (In general: A flow cytometer gives signals particle by particle.)
In experiment [2] the target is T1, human FAP on 3T3-huFAP cells (clone 19). In words: flow cytometry on 3T3-huFAP cells, PE anti-human secondary antibody, median fluorescence intensity.
In experiment [3] the target is T2, recombinant CD79b-His (Sinobiological #29750-H08H) (UniProt P40259 29-159).
T2 construct: bought; whole entry named, limits unknown; also called soluble recombinant CD79b-His
T2 sequence (looked up): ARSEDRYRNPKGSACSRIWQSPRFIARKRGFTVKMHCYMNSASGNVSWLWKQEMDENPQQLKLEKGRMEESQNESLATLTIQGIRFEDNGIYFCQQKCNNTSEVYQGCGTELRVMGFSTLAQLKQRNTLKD
Put plainly: SPR, Biacore T200, CD79b-His captured by anti-penta-His on CM5, bispecific as analyte. (Surface plasmon resonance follows binding to a sensor surface in real time, without labels.)

B1: FAP-CD28 H2T (P1AE2021) (bispecific antibody, human IgG1, kappa, L234A L235A)
heavy chain CD28(SA) VLCH1 - FAP(4B9) VHCH1 EE - Fc knob PGLALA: not shown
CD28(SA) VHCL: QVQLVQSGAEVKKPGASVKVSCKASGYTFTSYYIHWVRQAPGQGLEWIGCIYPGNVNTNYNEKFKDRATLTVDTSISTAYMELSRLRSDDTAVYFCTRSHYGLDWNFDVWGQGTTVTVSSASVAAPSVFIFPPSDEQLKSGTASVVCLLNNFYPREAKVQWKVDNALQSGNSQESVTEQDSKDSTYSLSSTLTLSKADYEKHKVYACEVTHQGLSSPVTKSFNRGEC
FAP(4B9) VLCL RK: EIVLTQSPGTLSLSPGERATLSCRASQSVTSSYLAWYQQKPGQAPRLLINVGSRRATGIPDRFSGSGSGTDFTLTISRLEPEDFAVYYCQQGIMLPPTFGQGTKVEIKRTVAAPSVFIFPPSDRKLKSGTASVVCLLNNFYPREAKVQWKVDNALQSGNSQESVTEQDSKDSTYSLSSTLTLSKADYEKHKVYACEVTHQGLSSPVTKSFNRGEC
Fc hole PGLALA: DKTHTCPPCPAPEAAGGPSVFLFPPKPKDTLMISRTPEVTCVVVDVSHEDPEVKFNWYVDGVEVHNAKTKPREEQYNSTYRVVSVLTVLHQDWLNGKEYKCKVSNKALGAPIEKTISKAKGQPREPQVCTLPPSRDELTKNQVSLSCAVKGFYPSDIAVEWESNGQPENNYKTTPPVLDSDGSFFLVSKLTVDKSRWQQGNVFSCSVMHEALHNHYTQKSLSLSP
notes: head-to-tail 1+1 format; also called Molecule H; FAP(4B9)-CD28(SA) C-01
With B1, the EC50 (read off the curve) (as a rule, the concentration needed to bring the measured effect to its halfway point) in experiment [1] was around 1 nM.

B2: FAP-CD28CA 1+2 (P1AD8962) (bispecific antibody)
CD28(mAb 9.3) light chain: DIELTQSPASLAVSLGQRATISCRASESVEYYVTSLMQWYQQKPGQPPKLLIFAASNVESGVPARFSGSGSGTNFSLNIHPVDEDDVAMYFCQQSRKVPYTFGGGTKLEIKRTVAAPSVFIFPPSDEQLKSGTASVVCLLNNFYPREAKVQWKVDNALQSGNSQESVTEQDSKDSTYSLSSTLTLSKADYEKHKVYACEVTHQGLSSPVTKSFNRGEC
heavy chain CD28(mAb 9.3) VHCH - Fc knob - FAP(4B9) VH: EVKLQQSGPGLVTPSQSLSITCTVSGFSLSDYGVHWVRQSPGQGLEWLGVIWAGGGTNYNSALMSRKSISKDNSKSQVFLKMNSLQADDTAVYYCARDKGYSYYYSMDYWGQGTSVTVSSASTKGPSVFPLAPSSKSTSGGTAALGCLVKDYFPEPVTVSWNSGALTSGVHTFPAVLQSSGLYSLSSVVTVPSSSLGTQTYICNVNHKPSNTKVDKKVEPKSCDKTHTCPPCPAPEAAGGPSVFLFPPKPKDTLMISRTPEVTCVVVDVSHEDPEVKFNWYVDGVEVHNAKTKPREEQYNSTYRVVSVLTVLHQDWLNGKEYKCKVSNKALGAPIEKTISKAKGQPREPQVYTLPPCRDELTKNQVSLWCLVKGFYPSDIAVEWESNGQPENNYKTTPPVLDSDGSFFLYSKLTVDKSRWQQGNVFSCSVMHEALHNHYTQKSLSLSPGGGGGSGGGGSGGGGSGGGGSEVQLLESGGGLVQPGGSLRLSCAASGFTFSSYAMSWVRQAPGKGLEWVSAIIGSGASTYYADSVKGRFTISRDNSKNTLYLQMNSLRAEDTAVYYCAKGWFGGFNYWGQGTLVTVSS
heavy chain CD28(mAb 9.3) VHCH - Fc hole - FAP(4B9) VL: EVKLQQSGPGLVTPSQSLSITCTVSGFSLSDYGVHWVRQSPGQGLEWLGVIWAGGGTNYNSALMSRKSISKDNSKSQVFLKMNSLQADDTAVYYCARDKGYSYYYSMDYWGQGTSVTVSSASTKGPSVFPLAPSSKSTSGGTAALGCLVKDYFPEPVTVSWNSGALTSGVHTFPAVLQSSGLYSLSSVVTVPSSSLGTQTYICNVNHKPSNTKVDKKVEPKSCDKTHTCPPCPAPEAAGGPSVFLFPPKPKDTLMISRTPEVTCVVVDVSHEDPEVKFNWYVDGVEVHNAKTKPREEQYNSTYRVVSVLTVLHQDWLNGKEYKCKVSNKALGAPIEKTISKAKGQPREPQVCTLPPSRDELTKNQVSLSCAVKGFYPSDIAVEWESNGQPENNYKTTPPVLDSDGSFFLVSKLTVDKSRWQQGNVFSCSVMHEALHNHYTQKSLSLSPGGGGGSGGGGSGGGGSGGGGSEIVLTQSPGTLSLSPGERATLSCRASQSVTSSYLAWYQQKPGQAPRLLINVGSRRATGIPDRFSGSGSGTDFTLTISRLEPEDFAVYYCQQGIMLPPTFGQGTKVEIK
notes: also called Molecule Q; FAP(4B9)-CD28(mAb9.3) 1+2
On to B2, for which, in experiment [2], the binding result was “binds”.

B3: FAP-CD28CA 2+2 (P1AD8968) (bispecific antibody)
heavy chain CD28(mAb 9.3) VHCH EE - Fc PGLALA - FAP(4B9) VHCL: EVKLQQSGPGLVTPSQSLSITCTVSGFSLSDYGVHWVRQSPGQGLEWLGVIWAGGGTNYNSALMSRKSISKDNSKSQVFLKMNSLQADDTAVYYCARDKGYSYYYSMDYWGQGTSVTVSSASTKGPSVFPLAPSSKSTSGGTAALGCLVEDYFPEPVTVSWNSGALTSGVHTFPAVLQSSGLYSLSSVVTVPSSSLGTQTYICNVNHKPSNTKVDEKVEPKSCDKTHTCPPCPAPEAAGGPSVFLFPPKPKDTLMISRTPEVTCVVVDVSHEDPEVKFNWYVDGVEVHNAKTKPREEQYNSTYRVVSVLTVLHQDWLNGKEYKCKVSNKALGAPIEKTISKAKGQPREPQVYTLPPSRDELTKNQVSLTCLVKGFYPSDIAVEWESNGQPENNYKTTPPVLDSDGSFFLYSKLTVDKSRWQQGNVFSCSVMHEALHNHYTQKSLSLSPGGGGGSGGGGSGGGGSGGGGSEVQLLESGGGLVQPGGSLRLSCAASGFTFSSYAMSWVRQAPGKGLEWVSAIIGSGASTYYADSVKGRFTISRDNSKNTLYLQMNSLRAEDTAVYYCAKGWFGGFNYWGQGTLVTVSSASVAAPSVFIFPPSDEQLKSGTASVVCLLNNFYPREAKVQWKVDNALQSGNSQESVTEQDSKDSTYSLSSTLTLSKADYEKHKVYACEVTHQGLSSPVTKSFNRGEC
CD28(mAb 9.3) light chain VLCL RK: DIELTQSPASLAVSLGQRATISCRASESVEYYVTSLMQWYQQKPGQPPKLLIFAASNVESGVPARFSGSGSGTNFSLNIHPVDEDDVAMYFCQQSRKVPYTFGGGTKLEIKRTVAAPSVFIFPPSDRKLKSGTASVVCLLNNFYPREAKVQWKVDNALQSGNSQESVTEQDSKDSTYSLSSTLTLSKADYEKHKVYACEVTHQGLSSPVTKSFNRGEC
FAP(4B9) VLCH1: EIVLTQSPGTLSLSPGERATLSCRASQSVTSSYLAWYQQKPGQAPRLLINVGSRRATGIPDRFSGSGSGTDFTLTISRLEPEDFAVYYCQQGIMLPPTFGQGTKVEIKSSASTKGPSVFPLAPSSKSTSGGTAALGCLVKDYFPEPVTVSWNSGALTSGVHTFPAVLQSSGLYSLSSVVTVPSSSLGTQTYICNVNHKPSNTKVDKKVEPKSC
notes: also called Molecule R; FAP(4B9)-CD28(mAb9.3) 2+2
For B3, in experiment [2], the “EC50 (read off the curve)” value is around 1 nM.

B4: FAP(4B9)-CD28(SA) 1+1 format (Molecule C) (bispecific antibody, human IgG1, kappa, L234A L235A)
heavy 1: not shown
light 1: not shown
heavy 2: EIVLTQSPGTLSLSPGERATLSCRASQSVTSSYLAWYQQKPGQAPRLLINVGSRRATGIPDRFSGSGSGTDFTLTISRLEPEDFAVYYCQQGIMLPPTFGQGTKVEIKSSASTKGPSVFPLAPSSKSTSGGTAALGCLVKDYFPEPVTVSWNSGALTSGVHTFPAVLQSSGLYSLSSVVTVPSSSLGTQTYICNVNHKPSNTKVDKKVEPKSCDKTHTCPPCPAPEAAGGPSVFLFPPKPKDTLMISRTPEVTCVVVDVSHEDPEVKFNWYVDGVEVHNAKTKPREEQYNSTYRVVSVLTVLHQDWLNGKEYKCKVSNKALGAPIEKTISKAKGQPREPQVCTLPPSRDELTKNQVSLSCAVKGFYPSDIAVEWESNGQPENNYKTTPPVLDSDGSFFLVSKLTVDKSRWQQGNVFSCSVMHEALHNHYTQKSLSLSP
light 2: EVQLLESGGGLVQPGGSLRLSCAASGFTFSSYAMSWVRQAPGKGLEWVSAIIGSGASTYYADSVKGRFTISRDNSKNTLYLQMNSLRAEDTAVYYCAKGWFGGFNYWGQGTLVTVSSASVAAPSVFIFPPSDEQLKSGTASVVCLLNNFYPREAKVQWKVDNALQSGNSQESVTEQDSKDSTYSLSSTLTLSKADYEKHKVYACEVTHQGLSSPVTKSFNRGEC
notes: huIgG1 PG-LALA CrossFab, knob-into-hole; also called P1AD4492; parental
On to B4, for which, in experiment [1], the “EC50 (read off the curve)” value was around 1 nM.

B5: CD79b (huMA79b.v28)-CD28 (SA_v15) 1+1 (Molecule F of Example 18; 18F) (bispecific antibody, human IgG1, kappa, L234A L235A)
heavy 1: not shown
light 1: not shown
heavy 2: DIQLTQSPSSLSASVGDRVTITCKASQSVDYEGDSFLNWYQQKPGKAPKLLIYAASNLESGVPSRFSGSGSGTDFTLTISSLQPEDFATYYCQQSNEDPLTFGQGTKVEIKSSASTKGPSVFPLAPSSKSTSGGTAALGCLVKDYFPEPVTVSWNSGALTSGVHTFPAVLQSSGLYSLSSVVTVPSSSLGTQTYICNVNHKPSNTKVDKKVEPKSCDKTHTCPPCPAPEAAGGPSVFLFPPKPKDTLMISRTPEVTCVVVDVSHEDPEVKFNWYVDGVEVHNAKTKPREEQYNSTYRVVSVLTVLHQDWLNGKEYKCKVSNKALGAPIEKTISKAKGQPREPQVCTLPPSRDELTKNQVSLSCAVKGFYPSDIAVEWESNGQPENNYKTTPPVLDSDGSFFLVSKLTVDKSRWQQGNVFSCSVMHEALHNHYTQKSLSLSP
light 2: EVQLVESGGGLVQPGGSLRLSCAASGYTFSSYWIEWVRQAPGKGLEWIGEILPGGGDTNYNEIFKGRATFSADTSKNTAYLQMNSLRAEDTAVYYCTRRVPIRLDYWGQGTLVTVSSASVAAPSVFIFPPSDEQLKSGTASVVCLLNNFYPREAKVQWKVDNALQSGNSQESVTEQDSKDSTYSLSSTLTLSKADYEKHKVYACEVTHQGLSSPVTKSFNRGEC
notes: huIgG1 PG-LALA CrossFab; also called P1AE9039; CD79b-CD28
Regarding B5, in experiment [3], the Kd (in general, the concentration at which binding is half-saturated) turned out to be 76 nM; the koff – broadly, the rate constant with which the complex falls apart – was determined as 0.0195 s⁻¹; the kon (as a rule, the rate constant with which the complex forms) was 257000 M⁻¹ s⁻¹.

Values taken from patent publication US20230416365A1 (Hoffmann-La Roche, published 2023).
